Measurements as given in paper PMC6900284.

Molecular target: CPSF160;WDR33;CPSF30;Fip1 (human;human;human;human, UniProt Q10570;Q9C0J8;O95639-3;Q6UN15-4 1-1443;1-410;1-178;130-195, |||)
Experiment: cryo-EM structure

CPSF160;WDR33;CPSF30;Fip1, sequence (Q10570 whole entry, chain 1 of 4): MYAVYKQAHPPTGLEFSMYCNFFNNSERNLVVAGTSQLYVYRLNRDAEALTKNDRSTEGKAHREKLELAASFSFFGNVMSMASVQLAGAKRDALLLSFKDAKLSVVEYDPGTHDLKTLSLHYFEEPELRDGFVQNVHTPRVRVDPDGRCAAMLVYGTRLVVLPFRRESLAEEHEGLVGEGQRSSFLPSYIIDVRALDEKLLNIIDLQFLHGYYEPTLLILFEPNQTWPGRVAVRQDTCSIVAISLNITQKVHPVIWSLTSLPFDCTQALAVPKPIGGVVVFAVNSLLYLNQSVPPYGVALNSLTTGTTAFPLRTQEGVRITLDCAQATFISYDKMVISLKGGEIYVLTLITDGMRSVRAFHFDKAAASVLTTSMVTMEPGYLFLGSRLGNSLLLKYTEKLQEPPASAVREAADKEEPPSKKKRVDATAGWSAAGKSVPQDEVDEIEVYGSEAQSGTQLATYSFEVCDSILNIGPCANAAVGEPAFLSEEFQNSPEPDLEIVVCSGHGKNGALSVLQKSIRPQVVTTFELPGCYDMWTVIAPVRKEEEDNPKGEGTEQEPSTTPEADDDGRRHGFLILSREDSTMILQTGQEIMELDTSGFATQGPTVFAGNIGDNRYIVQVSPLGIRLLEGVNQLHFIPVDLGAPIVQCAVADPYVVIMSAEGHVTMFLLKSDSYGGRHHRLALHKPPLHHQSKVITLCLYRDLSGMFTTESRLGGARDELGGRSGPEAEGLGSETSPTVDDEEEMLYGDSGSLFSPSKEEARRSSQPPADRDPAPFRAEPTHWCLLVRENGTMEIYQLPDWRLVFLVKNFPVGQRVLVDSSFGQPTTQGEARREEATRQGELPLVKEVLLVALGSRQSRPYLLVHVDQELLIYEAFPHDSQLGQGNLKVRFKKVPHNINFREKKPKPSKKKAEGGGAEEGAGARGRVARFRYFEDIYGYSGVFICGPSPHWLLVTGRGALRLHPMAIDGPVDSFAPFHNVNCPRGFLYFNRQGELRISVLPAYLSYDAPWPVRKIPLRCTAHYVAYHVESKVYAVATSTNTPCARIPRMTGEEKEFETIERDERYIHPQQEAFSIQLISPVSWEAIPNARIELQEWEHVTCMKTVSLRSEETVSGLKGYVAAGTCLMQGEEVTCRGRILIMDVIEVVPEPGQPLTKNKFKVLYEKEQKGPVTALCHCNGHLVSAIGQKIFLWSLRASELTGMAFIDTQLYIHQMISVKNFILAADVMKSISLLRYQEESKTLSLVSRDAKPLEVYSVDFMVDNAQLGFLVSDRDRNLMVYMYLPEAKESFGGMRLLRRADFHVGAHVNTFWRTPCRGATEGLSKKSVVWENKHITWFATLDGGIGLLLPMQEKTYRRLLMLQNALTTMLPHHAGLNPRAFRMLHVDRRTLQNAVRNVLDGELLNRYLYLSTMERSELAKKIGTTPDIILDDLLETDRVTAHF
CPSF160;WDR33;CPSF30;Fip1, sequence (Q9C0J8 1-410, chain 2 of 4): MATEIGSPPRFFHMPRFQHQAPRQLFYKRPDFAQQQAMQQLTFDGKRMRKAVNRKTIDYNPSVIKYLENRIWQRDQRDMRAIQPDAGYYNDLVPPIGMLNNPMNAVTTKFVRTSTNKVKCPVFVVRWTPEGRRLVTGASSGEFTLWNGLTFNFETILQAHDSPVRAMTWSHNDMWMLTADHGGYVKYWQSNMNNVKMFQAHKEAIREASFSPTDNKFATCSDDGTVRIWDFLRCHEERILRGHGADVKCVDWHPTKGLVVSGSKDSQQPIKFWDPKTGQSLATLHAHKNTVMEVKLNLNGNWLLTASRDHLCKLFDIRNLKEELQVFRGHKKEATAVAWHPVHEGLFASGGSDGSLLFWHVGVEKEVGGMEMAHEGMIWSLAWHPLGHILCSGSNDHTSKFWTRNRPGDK
CPSF160;WDR33;CPSF30;Fip1, sequence (O95639 1-178, chain 3 of 4): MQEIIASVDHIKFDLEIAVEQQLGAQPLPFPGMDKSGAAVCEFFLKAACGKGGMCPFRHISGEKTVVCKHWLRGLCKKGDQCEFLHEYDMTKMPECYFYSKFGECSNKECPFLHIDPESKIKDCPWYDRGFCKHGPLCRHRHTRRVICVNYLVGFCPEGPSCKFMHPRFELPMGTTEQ
CPSF160;WDR33;CPSF30;Fip1, sequence (Q6UN15 145-210, chain 4 of 4): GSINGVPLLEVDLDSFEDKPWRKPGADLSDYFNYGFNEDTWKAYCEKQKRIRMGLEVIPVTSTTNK

B1: 10-mer PAS RNA (ssRNA)
RNA: ACAAUAAAGG
  binding result: binds
